Reference: publication doi:10.1101/2024.12.25.630315 (bioRxiv, 2024)

Tests used:
Nectin-4 [1] = biological target: T1, Nectin-4 (Homo sapiens, UniProt Q96NY8); experiment: EV dose-time Nectin-4 pharmacodynamics by [^68Ga]AJ647 PET, HT1376 tumors; type: in vivo, mouse
T1 construct: host or cells: HT1376, SCaBER, T24, RT112, UC9, UC14 urothelial carcinoma cells; HT1376 xenografts in NSG mice
T1 sequence (Q96NY8 32-510): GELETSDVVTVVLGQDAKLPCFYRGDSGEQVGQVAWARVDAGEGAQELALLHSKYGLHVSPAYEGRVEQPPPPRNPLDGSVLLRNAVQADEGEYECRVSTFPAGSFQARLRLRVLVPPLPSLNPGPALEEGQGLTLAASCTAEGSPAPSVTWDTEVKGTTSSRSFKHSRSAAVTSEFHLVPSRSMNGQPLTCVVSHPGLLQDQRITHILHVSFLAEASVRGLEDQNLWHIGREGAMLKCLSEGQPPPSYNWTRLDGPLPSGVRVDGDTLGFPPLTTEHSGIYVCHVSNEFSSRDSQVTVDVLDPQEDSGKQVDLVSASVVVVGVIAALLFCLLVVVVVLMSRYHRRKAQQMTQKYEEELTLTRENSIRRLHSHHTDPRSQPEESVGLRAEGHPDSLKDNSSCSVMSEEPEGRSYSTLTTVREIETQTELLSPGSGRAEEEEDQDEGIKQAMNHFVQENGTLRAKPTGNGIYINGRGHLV
Protocol: Mice with tumor volume of ~100–150 mm^3 were injected with ~[…] (7.4 MBq) of [^68Ga]AJ647 in […] of 5% ethanol in saline intravenously and anesthetized under 2.5% isoflurane. PET-CT images were acquired at 60 minutes after radiotracer injection at 5 min/bed in an ARGUS small-animal PET/CT scanner (Sedecal, Madrid, Spain) as described (n=3 unless otherwise noted). PET-MR images were acquired on a simultaneous 7T Bruker PET-MR scanner. Dynamic imaging was conducted to evaluate pharmacokinetics of [^68Ga]AJ647. [^68Ga]AJ647 was injected (with help of catheter) after mice was anesthetized under 2.5% isoflurane on the equipment bed. All PET data were reconstructed using the two-dimensional ordered subsets-expectation maximization algorithm (2D-OSEM) and corrected for radioactive decay and dead time. The SUV values were calculated by finding percent of injected activity (%IA) based on a calibration factor obtained from a known radioactive quantity, then normalizing by mice weight. Amide software was used to derive SUV values by drawing region of interest to closely fit tumors. For change in accessible Nectin-4 levels following EV treatment, ΔSUV was calculated by subtracting baseline (pre-treatment) uptake from post-therapy uptake of [^68Ga]AJ647. Target engagement was quantified by normalizing this change by initial SUV in same subject controls. Image fusion, visualization, and 3D rendering were accomplished using Amira 2020.3.1® (FEI, Hillsboro, OR). The dose-time pharmacodynamics of Nectin-4 following EV treatment was studied at doses 6, 9 and 15 mpk. Experiment involving PET imaging was performed first. Male NSG mice were inoculated with 4 million HT1376 cells at day 0. On day 23 (average tumor volume=150±30 mm^3), mice were randomized to receive either saline, or a single dose of 6, 9 or 15 mpk EV intravenously (n=3 for each dose and n=2 for saline). Mice (n=2) from each dose group and saline were imaged on day 1, 3 and 6 following EV treatment. Once PET imaging results were analyzed, ex vivo distribution experiment was performed with n=16–18 for each dose and n=10 for saline. Treated mice (n=8–9 per dose per time-point) along with saline controls (n=5 per time-point) were sacrificed on day 1 and day 6. Biodistribution studies were performed at 60-minute after [68Ga]AJ647 injection as described above.

Nectin-4 [2] = biological target: T1, Nectin-4; experiment: In vivo Nectin-4 engagement by EV, SCaBER tumors (ex vivo biodistribution of [^68Ga]AJ647); parameters: species or system mouse; settings: NSG mice, single i.v. dose of EV (15 mg/kg in text, 20 mpk in legend/methods) 24 hours before tracer, ex vivo biodistribution 60 min, n=5, P < 0.001
Protocol: To validate imaging studies, ex vivo biodistribution studies were conducted in mice with tumors of size 100–200 mm^3. Mice received ~50 μCi (1.85 MBq) of [^68Ga]AJ647 in […] of 5% ethanol in saline intravenously and mice were sacrificed at 5–180 min after [^68Ga]AJ647 injection for pharmacokinetic evaluation (n=4 per timepoint). In all other studies, 60 min time-point was chosen. Selected tissues (Blood, Skin, Muscle, Bone, Salivary glands, Tumor, Lungs, Heart, Liver, Pancreas, Spleen, Kidneys, Bladder, Testicles) were collected, weighed, counted, and their %IA/g values calculated as described previously (PMID: 37793856). For EV pharmacodynamics studies, fewer organs were harvested to accommodate more number of mice.
Male NSG mice were implanted subcutaneously with HT1376 and SCaBER cells (4 million each) on the right and left rostral end, respectively. On day 25 after cell inoculation (average tumor volume=200±35 mm^3), mice were randomized and treated with a single dose of either saline or 20 mpk EV ADC injected intravenously (volume not exceeding 300 μL) or with 200 μL saline (n=7/group). 24 hours following the EV dose, [^68Ga]AJ647 PET scans (n=2/group) were acquired and ex vivo biodistribution (n=5/group) was performed using the protocols mentioned above.

Substance: enfortumab vedotin [EV]
- Nectin-4 engagement by EV ([^68Ga]AJ647 PET tumor uptake) (Nectin-4 [1]; day 1, all EV doses (6, 9, 15 mg/kg single i.v.)): full occupancy
- Nectin-4 engagement by EV ([^68Ga]AJ647 PET tumor uptake) (Nectin-4 [1]; day 3, 6 mg/kg): increase in [^68Ga]AJ647 uptake
- Nectin-4 engagement by EV ([^68Ga]AJ647 PET tumor uptake) (Nectin-4 [1]; day 3, 9 and 15 mg/kg): sustained target engagement
- Nectin-4 engagement by EV ([^68Ga]AJ647 PET tumor uptake) (Nectin-4 [1]; day 6, 6 mg/kg): significant increase in [^68Ga]AJ647 uptake
- Nectin-4 engagement by EV ([^68Ga]AJ647 PET tumor uptake) (Nectin-4 [1]; day 6, 9 mg/kg): partial engagement
- Nectin-4 engagement by EV ([^68Ga]AJ647 PET tumor uptake) (Nectin-4 [1]; day 6, 15 mg/kg): persistent high-level engagement
- reduction in [^68Ga]AJ647 uptake in EV-treated tumors compared to controls (Nectin-4 [2]): 72%
